Results published in the RNAGym collection of RNA variant scans (doi:10.1073/pnas.2313332121).
Variants at the floor of the assay were thinned out.

B1: TPR 5TU (parent)
chain: GGAUCUUCUCGAUCUAACAAAAAAGACAAAUCUGCCACAAAGCUUGAGAGCAUCUUCGGAUGCAGAGGCGGCAGCCUUCGGUGGCGCGAUAGCGCCAACGUUCUCAACUAUGACACGCAAAACGCGUGCUCCGUUGAAUGGAGUUUAUCAUG

Variants of: B1
Assay: polymerase ribozyme fitness, log enrichment relative to wild type (log ratio); higher = more active; in vitro selection for triplet polymerase activity
Outline: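 In triplicate, a single round of in vitro selection was run on each mutant library, PCR-built and transcribed, covering one subunit of a heterodimeric triplet polymerase ribozyme. Frozen incubation at −7 °C followed annealing with a biotinylated primer, partner subunit and triplets, and extended constructs were then gel-excised, streptavidin-captured and taken through RT-PCR. Fitness is the logarithm of genotype enrichment over wild-type enrichment, from inverse-variance-weighted replicate averages of Illumina-sequenced inputs and outputs. […] only genotypes with ≥10 input reads and ≥1 read per output were kept.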

| Variant | polymerase ribozyme fitness (log ratio) |
| --- | --- |
| C108U G136U | -3.41 |
| A91G C118G G143C | ≤ -4.2 |
| C5G C54A G58C A73G C79A C87U C116A A138G | ≤ -4.2 |
| C51U C79U | -3.01 |
| G74C A147C | -4.06 |
| A39C A40G G50C C75A C85G | ≤ -4.2 |
| A28C U33G G50A C95A U134A | ≤ -4.2 |
| A16G C27G C54G G83A G86U A97U C105U U146A | ≤ -4.2 |
| A98U A107U C125A A147G | ≤ -4.2 |
| U13C G94C U104G | -2.15 |
| C8G A52G C57U G80C U104G U148G | ≤ -4.2 |
| A52G C108G | ≤ -4.2 |
| U44A G67A U77G U78G C87A C95G | ≤ -4.2 |
| A40C U55G C63U C93U | -0.65 |
| G81U U82A G92A G152U | ≤ -4.2 |
| A49U G50A C85G C116G A121U | -1.16 |
| C27U U53A C85G | -3.88 |
| U15C G74C G94C | -4.1 |
| A29C C51U G83C C95U A137G G143C | ≤ -4.2 |
| A23U A29U | -3.88 |
| C96A G133U | -3.9 |
| A30U C75G G84U C103G G124C | ≤ -4.2 |
| A41G C75U C93G | -2.6 |
| C10G C18G U55C C57U U61A | -4.15 |

| Variant | polymerase ribozyme fitness (log ratio) |
| --- | --- |
| U101G | 0.557 |
| A3U U82G | -0.249 |
| A28G G42C C43G U56C C85G G92A G124U A150U | ≤ -4.2 |
| U56A G84C | -1.66 |
| A39G A41C | -1.44 |
| U45A U77G G86U U104A C123A | ≤ -4.2 |
| C57G U82C C93A C95U C116U | -3.34 |
| A26G A40G U55A G92A C123G C125U G126A U127C | ≤ -4.2 |
| G59A A60C G126A | -0.62 |
| C36A C76U | ≤ -4.2 |
| C14U A91G | -3.98 |
| U33A A49C G50C C76A C85G A138U U151C | ≤ -4.2 |
| C103A U146C | -1.49 |
| G70A C99U U134G G140C G143C | ≤ -4.2 |
| A37C G86C | -3.09 |
| C38U G42C A52U U61G G133U | ≤ -4.2 |
| A30G G42A C96G G100A U139C U148C | ≤ -4.2 |
| U7C A21C U33G C43U G62A C87U | ≤ -4.2 |
| G70A C93A C103G | ≤ -4.2 |
| U134C U144G | 0.895 |
| U56A G62A A97G C103A | -3.45 |
| A19C A20C U148A | -3.05 |
| A16U A20C A41U C87G A98G | ≤ -4.2 |
| G42C C51G U56A G83A C105U A122U U148A | ≤ -4.2 |

| Variant | polymerase ribozyme fitness (log ratio) |
| --- | --- |
| U77A G94A G140A | ≤ -4.2 |
| G94A U127G U146G | -3.33 |
| C38U | 0.0316 |
| A19U C51U C54A C85G C132G | ≤ -4.2 |
| U6G G50U C85U C116U G152U | -3.7 |
| A49U C85A | -1.86 |
| A17C G81U C85A C95U C105G | -1.64 |
| C95U A119G | 0.353 |
| C87U U104G | -0.825 |
| G92A G141C A147U | -3.44 |
| G50C G86A | ≤ -4.2 |
| U31G A37C U61A G126C U145C | ≤ -4.2 |
| U9G C27G U55A C57A G59A | ≤ -4.2 |
| C14G G81A C87U A106C G140U | ≤ -4.2 |
| C93U C99G G136A U145G | -1.59 |
| A28C A39C C54G U61A C99U | ≤ -4.2 |
| A24C A37C G59A C99G A107U | ≤ -4.2 |
| G81A A106U | -1.09 |
| C14U A30U U53G G58U G65C G74A | ≤ -4.2 |
| G11A U55A | -1.11 |
| U13G C57U C96G | -1.66 |
| U9C A24U A41G C75U G83A G84A C93A | ≤ -4.2 |
| U4C U9A A41C G48C C51A G68A G83C | ≤ -4.2 |
| U53A C54U C85U G141U | -1.21 |

| Variant | polymerase ribozyme fitness (log ratio) |
| --- | --- |
| G83A G92U C118G | -1.41 |
| U6G G88A | -4.11 |
| U6G U33C U77C G80C C85G G86A G112U A120G U151C | ≤ -4.2 |
| A98G U127G G141A | ≤ -4.2 |
| U56A C96U G126A | -0.336 |
| A30G C85U | -3.06 |
| C96U U104G | -1.59 |
| A73U C85U C103G C105G C116U A142G | ≤ -4.2 |
| C75A G86A A97G G136U | ≤ -4.2 |
| G58U A89G | -0.659 |
| C27U C118U | -1.44 |
| C5G C99A | -0.989 |
| G59A A122G U148C | -3 |
| A28C A41U C43U G46C C85A U130G U135C | ≤ -4.2 |
| A20U C85G | -3.35 |
| U15G A30G C54A | ≤ -4.2 |
| U31G G83A A138G | ≤ -4.2 |
| A47G C57U U109G | -0.869 |
| A3G C14G A16C U82C C129G C131A | ≤ -4.2 |
| A89C A107U | ≤ -4.2 |
| G48C C79A G86U C96U G124A | ≤ -4.2 |
| A41G C63U | 0.774 |
| C35A A41C C57U C85G | ≤ -4.2 |
| A47U A52G A119C | -1.05 |

| Variant | polymerase ribozyme fitness (log ratio) |
| --- | --- |
| A23G G86U C93U A150U | -3.88 |
| C69U G81U | -2.07 |
| A21C C43A G50C G74C C76A C87A A91G A119G | ≤ -4.2 |
| A17U A23U C36G C57A G70U U78C C85U C103G A147C C149U | ≤ -4.2 |
| A16U C27A G42A U44G U45A A49C A113G U144A | ≤ -4.2 |
| G11A A30C C99A C118U U145G | ≤ -4.2 |
| A19C G126U U145A | -0.56 |
| U6G G46A A113U C125U G136U U146C | ≤ -4.2 |
| A22U A23C | -4 |
| A41C U56A C57A A115U C116U | -2.62 |
| U55G G59A | -2.25 |
| G11A A23U A66C G92A C114U C125A | ≤ -4.2 |
| C27U C76U G83A | -1.55 |
| A16C G83C U146G U148C C149A | ≤ -4.2 |
| A24G G92U A122G | ≤ -4.2 |
| A21U C85A A97U | -2.01 |
| G50U U61A C93G C105U A107G | ≤ -4.2 |
| A41C C96A U146A | -0.97 |
| A26C C87U A122G A142G | -3.94 |
| A30G C35G G59U A113C C131A | ≤ -4.2 |
| U55A C76A G84U C116U A137U | ≤ -4.2 |
| A20G C85G | -2.92 |
| C57U G59U C93U G136U | -2.96 |
| U13C G88A C99G | -4.01 |

| Variant | polymerase ribozyme fitness (log ratio) |
| --- | --- |
| A49G C63A G71U G83U A122U A150U | ≤ -4.2 |
| A41C C76A G84A A120C | -2.53 |
| C85A A142U | -1.59 |
| A60G G71A C75A C93U C118G | ≤ -4.2 |
| C85G G92U A138U U145A | ≤ -4.2 |
| A110C G136U | ≤ -4.2 |
| C43G A49C C76A G84A C105G | ≤ -4.2 |
| A22U G50U | 1.37 |
| G94U G141C U144G | -1.83 |
| C96G A97U C118A | -3.08 |
| A24U G48U G83A | -1.25 |
| G83U C129A | -4.02 |
| A24C U33A C35G U53A U82C G92U G136A | ≤ -4.2 |
| A73G G94A U148C | -3.66 |
| C35U G117A U144G A147C | -0.649 |
| C54A C57G C87U A150G | -3.99 |
| G94C G124U G143U | -3.6 |
| C87G C93U C99A U134G G141U | ≤ -4.2 |
| A52G C76A | -0.0301 |
| G46U C99U | -1.06 |
| C27G C105A C114A A119G | ≤ -4.2 |
| G46C U61A C63U U82A A122G | ≤ -4.2 |
| U9A U31G C57U G74C G92C | ≤ -4.2 |
| A52C G83C | -2.29 |

| Variant | polymerase ribozyme fitness (log ratio) |
| --- | --- |
| G11U A28U C43U C87A C99G G126A | -4.16 |
| C14U A21C G67U U77A C85G C96U U127G | ≤ -4.2 |
| C99U U104G | -1.84 |
| G71A U144A A147C | ≤ -4.2 |
| U6A G83C | -0.841 |
| C93U G143U | -3.38 |
| A17G G67C G86A | ≤ -4.2 |
| C57U C103G | -1.7 |
| A12G U56G C96U A120U | -0.669 |
| C54A G59A C87U | -1.95 |
| A24G G141C G143C | ≤ -4.2 |
| G11C A12G A41U C76A G83A C103G C114A | ≤ -4.2 |
| G48A U55A | -1.14 |
| A22C C27G A37C A73G U146A G152U | ≤ -4.2 |
| C54A A64C C85A G92U A121U C125G U134G U139G | ≤ -4.2 |
| C10A C27G G46A C75A C96A | ≤ -4.2 |
| C14G C36A A52G A66C C93U C125A | ≤ -4.2 |
| C54A C57U C95U | -1.9 |
| A17C C93U | -1.02 |
| C8A C14U A16U U33G A47U C57A C93A A142U | ≤ -4.2 |
| A12G G83A G133C G143A U146G | -3.34 |
| A30G U44A A49U C87U G88A G92A A115U | ≤ -4.2 |
| G83C C96A A150C | -3.75 |
